According to PMC4210868:

Target: DDAGNRQP-fused pVIII protein (phage fd (fd-tet)) (UniProt P69539)
Experiment: tricine-SDS-PAGE

Question: For “DDAGNRQP-fused pVIII protein (from UniProt P69539 24-73)”, which stoichiometry N is on record?
Answer: 2
